From patent US20060140932A1 (APPLIED MOLECULAR EVOLUTION, published 2006)

Key:
human IL-1β [1] = target: T1, human IL-1β (human, UniProt P01584 117-269); test: cell-based or functional assay
human IL-1β [2] = target: T1, human IL-1β; test: cell-based or functional assay; remark: listed apart in the source
human IL-1β [3] = target: T1, human IL-1β; test: SPR (BIAcore), antibody captured on protein A, human IL-1β flowed; HBS-EP pH 7.4, 25 C
Method: BIAcore™ is an automated biosensor system that measures molecular interactions. (Karlsson, et al. (1991) J. Immunol. Methods 145: 229-240). In these experiments antibody was captured to a surface at low density on a BIAcore™ chip. Ethyl-dimethylaminopropyl-carbodiimide (EDC) was used to couple reactive amino groups to protein A to a flow cell of a carboxy-methyl (CM5) BIAcore sensor chip. Protein A was diluted in sodium acetate buffer, pH 4.5, and immobilized on a flow cell of a CM5 chip using EDC to yield 1000 response units. Unreacted sites were blocked with ehanolamine. A flow rate of 60 μl/min was used. […] Elution was performed with glycine-HCl, pH 1.5. BIAevaluation™ was used to analyze the kinetic data.

human IL-1β [4] = target: T1, human IL-1β; test: SPR (BIAcore), captured antibody, human IL-1β flowed; protocol for Mu007 as in PCT/US02/21281; HBS-EP pH 7.4, 25 C

| Binder | Fold Increase in Potency (against Mu007), T1165.17 cell proliferation assay (human IL-1β [1]) | IC50, T1165.17 cell proliferation assay (human IL-1β 0.3 pM) (human IL-1β [1]) | IL-6 Serum Levels in mice, human IL-1β 3 µg/kg + antibody 13 µg/kg (human IL-1β [2]) | IL-6 Serum Levels in mice, human IL-1β 3 µg/kg + antibody 27 µg/kg (human IL-1β [2]) | IL-6 Serum Levels in mice, human IL-1β 3 µg/kg + antibody 81 µg/kg (human IL-1β [2]) | IL-6 Serum Levels in mice, human IL-1β 3 µg/kg + antibody 270 µg/kg (human IL-1β [2]) | Kd (human IL-1β [3]) | koff (human IL-1β [3]) | kon (human IL-1β [3]) | Kd (human IL-1β [4]) | koff (human IL-1β [4]) | kon (human IL-1β [4]) |
| --- | --- | --- | --- | --- | --- | --- | --- | --- | --- | --- | --- | --- |
| W18 (IgG1) (antibody, V domains shown, humanized, IgG1 kappa) VH: QVQLVQSGAEVKKPGSSVKVSCKASGYTFDRYWIEWVRQAPGQGLEWMGEILPGSGTINYNEKFKGRVTITADKSTSTAYMELSSLRSEDTAVYYCARMYYDYDQGFDNWGQGTLVTVSS VL: DIQMTQSPSSLSASVGDRVTITCKFSQDIDRFLSWFQQKPGKAPKSLIYRVKRLVDGVPSRFSGSGSGTDFTLTISSLQPEDFATYYCVQYDEFPYTFGGGTKVEIKR | 10 fold | 2 pM | 398 pg/mL | 232 pg/mL | 77.9 pg/mL | 18 pg/mL | 4.2 pM | 0.00018 s⁻¹ | 4.1e+07 M⁻¹ s⁻¹ |  |  |  |
| W17 (IgG1) (antibody, humanized, IgG1 kappa) heavy: not shown light: DIQMTQSPSSLSASVGDRVTITCKFSQDIDRFLSWFQQKPGKAPKSLIYRVKRLVDGVPSRFSGSGSGTDFTLTISSLQPEDFATYYCVQYDEFPYGFGGGTKVEIKRTVAAPSVFIFPPSDEQLKSGTASVVCLLNNFYPREAKVQWKVDNALQSGNSQESVTEQDSKDSTYSLSSTLTLSKADYEKHKVYACEVTHQGLSSPVTKSFNRGEC | 11 fold | 1.8 pM | 567 pg/mL | 410 pg/mL | 114 pg/mL | 27.5 pg/mL | 2.8 pM | 9e-05 s⁻¹ | 3.1e+07 M⁻¹ s⁻¹ |  |  |  |
| W17 (IgG4) (antibody, humanized, IgG4 kappa) heavy: not shown light: DIQMTQSPSSLSASVGDRVTITCKFSQDIDRFLSWFQQKPGKAPKSLIYRVKRLVDGVPSRFSGSGSGTDFTLTISSLQPEDFATYYCVQYDEFPYGFGGGTKVEIKRTVAAPSVFIFPPSDEQLKSGTASVVCLLNNFYPREAKVQWKVDNALQSGNSQESVTEQDSKDSTYSLSSTLTLSKADYEKHKVYACEVTHQGLSSPVTKSFNRGEC | 12 fold | 1.7 pM |  |  |  |  | 3.3 pM | 0.0001 s⁻¹ | 3.2e+07 M⁻¹ s⁻¹ |  |  |  |
| Mu007 (antibody, V domains shown) VH: QVQLQQSGAELMKPGASVKISCKATGYTFSRYWIEWIKQRPGHGLEWIGEILPGNGNINYNEKFKGKATISADSSSETAYMQLSSLSSEDSAVYYCSTIYYDYDQGFTYWGQGTLVTVSA VL: DIKMTQSPSSMYASLGERVTITCKASQDIDRYLSWFQQKPGKSPKTLIYRVKRLVDGVPSRFSGSASGQDYSLTISSLQYEDMGIYYCLQYDEFPYTFGGGTKLEIK | 1 fold | 20.6 pM |  |  |  |  |  |  |  | 6.2 pM | 0.00016 s⁻¹ | 2.6e+07 M⁻¹ s⁻¹ |

The next lines start with the values.

| Fold Increase in Potency (against Mu007), T1165.17 cell proliferation assay (human IL-1β [1]) | IC50, T1165.17 cell proliferation assay (human IL-1β 0.3 pM) (human IL-1β [1]) | IL-6 Serum Levels in mice, human IL-1β 3 µg/kg + antibody 13 µg/kg (human IL-1β [2]) | IL-6 Serum Levels in mice, human IL-1β 3 µg/kg + antibody 27 µg/kg (human IL-1β [2]) | IL-6 Serum Levels in mice, human IL-1β 3 µg/kg + antibody 81 µg/kg (human IL-1β [2]) | IL-6 Serum Levels in mice, human IL-1β 3 µg/kg + antibody 270 µg/kg (human IL-1β [2]) | Kd (human IL-1β [3]) | koff (human IL-1β [3]) | kon (human IL-1β [3]) | Kd (human IL-1β [4]) | koff (human IL-1β [4]) | kon (human IL-1β [4]) | Binder |
| --- | --- | --- | --- | --- | --- | --- | --- | --- | --- | --- | --- | --- |
| 17 fold | 1.2 pM |  |  |  |  | 2.7 pM | 0.0001 s⁻¹ | 3.8e+07 M⁻¹ s⁻¹ |  |  |  | W20 (IgG1) (antibody, V domains shown, humanized, IgG1 kappa) VH: QVQLVQSGAEVKKPGSSVKVSCKASGYTFDRYWIEWVRQAPGQGLEWMGEILPGSGDINYNEKFKGRVTITADKSTSTAYMELSSLRSEDTAVYYCARMYYDYDQGFDYWGQGTLVTVSS VL: DIQMTQSPSSLSASVGDRVTITCKFSQDIDRFLSWFQQKPGKAPKSLIYRVKRLVDGVPSRFSGSGSGTDFTLTISSLQPEDFATYYCVQYDEFPYTFGGGTKVEIKR |
| 17 fold | 1.2 pM | 655 pg/mL | 277 pg/mL | 129 pg/mL | 23.4 pg/mL | 2.8 pM | 0.00017 s⁻¹ | 6.1e+07 M⁻¹ s⁻¹ |  |  |  | W13 (IgG1) (antibody, V domains shown, humanized, IgG1 kappa) VH: QVQLVQSGAEVKKPGSSVKVSCKASGYTFDRYWIEWVRQAPGQGLEWMGEILPGSGDINYNEKFKGRVTITADKSTSTAYMELSSLRSEDTAVYYCARMYYDYDQGFDYWGQGTLVTVSS VL: DIQMTQSPSSLSASVGDRVTITCKFSQDIDRFLTWFQQKPGKAPKSLIYRVKRLVDGVPSRFSGSGSGTDFTLTISSLQPEDFATYYCIQYDEFPYTFGGGTKVEIKR |
| 5 fold | 4 pM | 756 pg/mL | 509 pg/mL | 186 pg/mL | 39.3 pg/mL | 4.7 pM | 0.00022 s⁻¹ | 4.7e+07 M⁻¹ s⁻¹ |  |  |  | U43 (IgG1) (antibody, V domains shown, humanized, IgG1 kappa) VH: QVQLVQSGAEVKKPGSSVKVSCKASGYTFDRYWIEWVRQAPGQGLEWMGEILPGSGDINYNEKFKGRVTITADKSTSTAYMELSSLRSEDTAVYYCARMYYDYDQGFSLWGQGTLVTVSS VL: DIQMTQSPSSLSASVGDRVTITCKASQDIDRFLSWFQQKPGKAPKSLIYRVKRLVDGVPSRFSGSGSGTDFTLTISSLQPEDFATYYCVQYDEFPYTFGGGTKVEIKR |
